Experimental data published in article PMC10208028 (Chemical Science, 2023).

Legend:
amyloid-β 42 [1] = target: T1, amyloid-β 42 (UniProt P05067 672-713); test: native MS
amyloid-β 42 [2] = target: T1, amyloid-β 42; test: NMR titration

Binder | stoichiometry N (amyloid-β 42 [1]) | binding result (amyloid-β 42 [2])
Cytochrome c (natural protein, covalently attached heme group) not shown | 1 Cyt c : Aβ42 | 
15N-labeled Cyt c with 104 amino acid residues (natural protein, 15N-labeled; covalently attached heme group) not shown |  | binds
